# According to the DeepSol protein solubility set:
# Experiment: soluble on expression in E. coli; label from the status in PepcDB or PDB records
row,Sequence,soluble on expression in E. coli
1,MGGAERVMATLANEFVKRGHQVRLVTLKKAVSAYELDKRVEFIGGGADINSGNFLIKRIQMISAVIKGTLFYRRQLREYKPDIILSFLTYTNLLSVINNRISRVKYPVVVSERCDPRKRSKLLIKLCNIVYPLADCIVCQSKVIQDYFLNKNPKSVTKVIPNPVNEECINKEEIIKRRKLIVAVGRLSNQKNYDLLIDAFSDIANEYSEYRLEIYGEGPERERLQKKINRLGLNDRIQLMGTKTNVMKHIADAQLFVMSSNFEGFPNALAEAMASGLPVISTNFPSGVAKELIIDGENGYVVDINNREQMADAMRKILGDPLTITKMSKNNVLLREKLNVKTVANMWENLFNDILEKRTKNEKN,not soluble
2,MSKDIRTVRPPVQLLPKAIIAVRPASTAKADLEVMAAQVAQLTTACCQENIQVDSIIITFGGIKDITKRVKQLTEQKDISYLIIYSGKQIAENESEYVNFKRDMQDWYYLKVVCYR,not soluble
3,WWYEGYRPNAGWALTDKPTYRDQQMQDKLDALSLYDILEREIIPLYYDKEDKSYSEGWIRYIRRSMMYIAPHFTMKRMLDDYYDKFYGPLAQRHRSISASSFALASEIADWKQQTATHWDEMRVVRVAATGFGLCLQDNHTMQTLEIEIEKGNLSAELNVELVVISDDNQGGVSLVQTIPLNLSEQSADNRWQKYNVNCSLKNPGLHRVAIRITPHSDLLPHKMDFAYVRWAAIS,not soluble
4,MDLELEPTLESIVQHDSLKWIFVGGKGGVGKTTTSSSVAVQLALAQPNEQFLLISTDPAHNLSDAFCQKFGKDARKVEGLPNLSCMEIDPEAAMSDLQQQASQYNNDPNDPLKSMMSDMTGSIPGIDEALSFMEVLKHIKNQKVLEGEDNSNAISYKTIIFDTAPTGHTLRFLQLPSTLEKLLSKFKDLSGKLGPMLSMMGGGQQQDIFEKLNEVQKNVSEVNEQFTNPELTTFICVCISEFLSLYETERMIQELMSYNMDVNSIVVNQLLFAEGDDHSCKRCESRWKMQKKYLDQMGELYEDYHLVKMPLLGCEIRGVENLKKFSKFLLKPYDPKADSDIVFDLEEK,soluble
5,MGSDKIHHHHHHMKTDFTIREAQQTDTIALKELFQNTVLAVNSKDYSQAEVEDWASCGDDLSNIEEMIKTHYFIVAVNQQSQIVGFSSITSQGYLHSMFVHKDFQGKGIATMLLEEIERYAITAGIMRITSEVSLTARPFFEKKGYIVKEEQKRKANQLSLTNFWMAREMAKIKPYNGRIPACGVFCGGCPIYTREKRACRGAELNHSRCEKCKTFHLCCFGKKITHCFQCSNFPCTRFKGFAKRWQKHGQDFIENQKLLSEIGEVAFLEYYNKKVTD,not soluble
6,MGARGKFDQFDDGKIKLASSLTSKAAANALQTIIEKYNIVKSGKDYPIEITQIAGGYDGGRTDLQTRVSVKDKTNFYNLILNYPDLVSVLARSGMELLFDKVNVDKLEPNFLKFNEQISGVAKSGNYGIPVSLSTDILVLNGPVLHYILNSAKKEEANSQVKSQIKTSQIQAKGSLTIDTDENTKSLWEKIQNSAKANGETNQKGRKAAKSNKTALVQLKNGADTTTNEENKDTKTSDDKVKQTWGDYVEKDDGLKNYTFRASVFENWHDFLDFSTRVAKSFTEKVSNITNKKGTDIQGVLGVDSSPNVLFASVFAAGGGNYENFFYKLKDGRADFSNFKNKGSSYQNLQSVFKDLEHHHHHH,not soluble
7,MSASKILSQKIKVALVQLSGSSPDKMANLQRAATFIERAMKEQPDTKLVVLPECFNSPYSTDQFRKYSEVINPKEPSTSVQFLSNLANKFKIILVGGTIPELDPKTDKIYNTSIIFNEDGKLIDKHRKVHLFDVDIPNGISFHESETLSPGEKSTTIDTKYGKFGVGICYDMRFPELAMLSARKGAFAMIYPSAFNTVTGPLHWHLLARSRAVDNQVYVMLCSPARNLQSSYHAYGHSIVVDPRGKIVAEAGEGEEIIYAELDPEVIESFRQAVPLTKQRRFDVYSDVNAH,soluble
8,EVSTTQNDTLKVMTHNVYMLSTNLYPNWGQTERADLIGAADYIKNQDVVILNEVFDNSASDRLLGNLKKEYPNQTAVLGRSSGSEWDKTLGNYSSSTPEDGGVAIVSKWPIAEKIQYVFAKGCGPDNLSNKGFVYTKIKKNDRFVHVIGTHLQAEDSMCGKTSPASVRTNQLKEIQDFIKNKNIPNNEYVLIGGDMNVNKINAENNNDSEYASMFKTLNASVPSYTGHTATWDATTNSIAKYNFPDSPAEYLDYIIASKDHANPSYIENKVLQPKSPQWTVTSWFQKYTYNDYSDHYPVEATISMK,soluble
9,MGSDKIHHHHHHMRYIDLAEMCIADISSGKLVKNSRMPSLRNFRQQHSISMTTALNCYQYLESLGWILARPQSGYFVCGQRMANEKPELVAFKSIMTDPKLPVVKPYYQHGNSSACAIDSAHNTSANHSVYQPANKDIVGPLGVARISTDFIPLDKLQNSFRRALKRQGSNISFYPDIQGEKILRDTLSSHFKSYDFHIPSDELLITNGCMDAIQTAIEICTDFGDAVAISSPCFNGILDMLAALGRKVVEIPSTEQGIDLVQLEQHMKSNQIKAGLFCTSHMNPQGISMTALQKQHLVNLAQTYKIPIIEDDVYIELAHGKVMPLPAKHWDKHGYILWCGSVSKTIAAGYRLGWCWPGRFTEQYLQKRKYCNQGVSSPVQLGLADFISNGDYAKHLKKLRVAIQQHTLSYQRYLTKNLPVASKISDPSGGFVLWIQVPNLNGRKLLALATEGNIDIRIGEQFSTRDLYQDYFRVNTGFMITEGNDKDTREEVDSQINKLMKLVKVASSERI,not soluble
10,MSSVKRSLKQEIVTQFHCSAAEGDIAKLTGILSHSPSLLNETSENGWTALMYAARNGHPEIVQFLLEKGCDRSIVNKSRQTALDIAVFWGYKHIANLLATAKGGKKPWFLTNEVEECENYFSKTLLDRKSEKRNNSDWLLAKESHPATVFILFSDLNPLVTLGGNKESFQQPEVRLCQLNYTDIKDYLAQPEKITLIFLGVELEIKDKLLNYAGEVPREEEDGLVAWFALGIDPIAAEEFKQRHENCYFLHPPMPALLQLKEKEAGVVAQARSVLAWHSRYKFCPTCGNATKIEEGGYKRLCLKEDCPSLNGVHNTSYPRVDPVVIMQVIHPDGTKCLLGRQKRFPPGMFTCLAGFIEPGETIEDAVRREVEEESGVKVGHVQYVACQPWPMPSSLMIGCLALAVSTEIKVDKNEIEDARWFTREQVLDVLTKGKQQAFFVPPSRAIAHQLIKHWIRINPNL,soluble
11,MGSDKIHHHHHHMIKDTVFFAPGVSGGSNASSLSSRHRRAAIILHEIYGINAHIQRAGHEWMTRGFDIYIPALFPHHTPFRYEQQEEAYRHFSANVGFDPAVVTTLLHDLRTQYETLIVVGYSVGATLAWLSAASGLCDGVVCYYGSRIRQYLHLAPLCPTLVIVARYEPAFDPLAMRQALEKRPRVQCKMYDARHGFCDADSATFDAALSHQVMDDVTAFIRDITCANTSPDFQL,not soluble
12,MTESFAQLFEEFLNETQFQQGTIVKGTVVAIENGYVLVDAGLKSESAIPAEQFKNAAGELEVQVGSQVDVALDAVEDGFGETQLSREKAKRHEAWIVLEKAYEEAATVIGIINGKVKGGFTVELNGIRAFLPGSLVDVRPIRDTAHLENKELEFKVIKLDQKRNNVVVSRRAVIESESSVERDELLETLQEGTEVKGIVKNLTDYGAFVDLGGVDGLLHITDMAWKRVKHPSEIVNVGDEILVKVLKFDRDRTRVSLGLKQLGEDPWVAIAKRYPEGHKLSGRVTNLTDYGCFVEIEEGVEGLVHVSEMDWTNKNIHPSKVVNVGDEVEVMVLDIDEERRRISLGLKQCKANPWQSFAEAQAKGDKVTGKIKSITDFGIFIGLEGGIDGLVHLSDISWNVPGEEAVREFKKGDEISAVVLAVDAERERISLGIKQMENDPFNAYVSDNKKGALVNGTVTAVDAKGATIELEDGVEGYIRASEVSRDRIEDASLILNVGDKVEAKFTGVDRKNRVINLSIKAKDEAEEQEVMATLNKQDEAAFGNAMADAFKAAKGELEHHHHHH,not soluble
13,MGSDKIHHHHHHMIEYYNFNKSELEKHSRIPLIVKKNNEEIFISLALEMVELIKENNEKNEKTVIICPVGPVGQYPHFVRLVNQFKIDLSNVWFINMDEYLLEDLHWIDVVHPLSFRGFMQKNVYSQIHPTLIMSEEQRIFPDPLDIDSISNKIKELGKIDLCIGGIGLNGHIAFNEPDSTLTVQEFLKLGSRVLPISVETKVMNGLTVLKGAVEEVPNYCVTIGMSEIFQAKKIRLAVFRDWHHAVIRKTVCSKPDTGFPSTLMQIHTNCSIYLNESLAN,not soluble
14,MSLESLFQHIIFTEHQAEESRRLMREVRSEITRCREKIKKATEELNEEKIKLESKVQQFFEKSFFLQLLKAHENALEKQYSEITNHRNMLLQTFEAIKKQMIEEEDKFIKEITDFNNDYEITKKRELLMKENVKIEISDLENQANMLKSEMKSMEHDSSQLNELQKQKSELIQELFTLQRKLKVFEDEENESICTTKYLEAEKIKISEKPQNDTECLRLKKELELYKEDDMESVYEALQTEIEFLELTLAQKDLQESK,not soluble
15,MKKLAAIISATLLFASSAAVAEVYVGGKVGKSWLDDACLAGQSCEDDDQVVGAFLGYQANKWLSLEAGYDYLGKFTAAGLNDEKVQAVTLAPKLSIPLTEGIALYGKVGGAYVDYGSKDDYSYLGAAGLEFNTNHNVTMRLEYQNLTDINNDIVRARAETATLGIAYKFGGSEEPAPVVEQRPAEPAPVAAPVEKVAVTKTFTFQHLDSSTFATASAELKPATVQKLDKIVGYLNQYPQAKVEVVGHTDSTGSEAYNQKLSERRAQAVAKALEAQGIDASRISAKGLGESSPIASNATAEGREKNRRVELVIPEFQYQVTE,not soluble
16,MKMSTKGRYGLRAMLDIAVNSKGDIVSVKSIAERQNISESYLEQVFSILRKAAIVKSIKGAQGGYVLADDPSNITVGKILRTLEGNLNVVDIDDRDSEVSKEEKCINEFVWNKINKSIDKVVDNITLGDLLREYQKLEDNSSVMYYI,soluble
17,MSLYAAYAGNLDPRLMTRRAPHSPLRATGWLNDWRLTFGGEHMGWEGALATIVEAPRSQVFVALYDIAPMDEDSMDRWEGVGLDIYRRMRVRVHTLEGEEAAWVYVLNGYEGGLPSARYLGELADAAESAGAPHDYVMELRKRPCLEHHHHHH,soluble
18,MATTCQKRRYGTFRTGISKPGLSTRRFQHRDFSHGDFGTGTFRTAVSPPLTFSSPPTSTVATPYFPMRFINVKSHVSRPPPLHGDIPIGHEGTRVSRHVDDRCGLVVVSRHGRAGGCLSRLEHHHHHH,not soluble
19,MFEKVRKIIAEQLGIEEDEITMESSFIDDLGADSLDIVELIMALEEEFDLEIPDSEAEKITTVGDVVEYIKNNS,not soluble
20,MLFPTTIAGSLPKPEWLAEPNKLWAPWKSTGAELLRAKRDATILALKLQEDSGIDIVTEGEQARQHFVHGFLEAVEGIDFAHKVEMGIRNDRYKAMVPQVVAPLRLKGRVHGFEGQIARAHSTHKIKFTLPGPMTIIDTIADRHYGDRVKMAFAFAELLNEEAKALQADGIDMIQFDEPAFNVYMSEAADWGVKALERAAQDLTCATAVHICYGYGIKANTDWKETLGAEWRQYEDIFPAIDASSIQQVAVECRNSKVPLELLSLLKGKIVQAGVIDVASDEVETAEDVCATIEAVMQHVPKSNIIATTNCGMAPMRREIAEAKLAALGAGAELARERFKLEHHHHHH,soluble
21,MGSDKIHHHHHHMKLSVKIAGVLTVAAAAMTAKMYATAKGNHLKTHTFPLSKMKGKPPLTIFFISDIHKRLIDQDLLEKARSHAPHLVIIGGDLAEGGVPSARIEENIKRLVHFGVPIVFVWGNNDYEVRQHKLYSIFKAHGVITLRNESVPFSYNGHTIAIAGVDDIRMEMDHYEEAIKELDESQLNILVCHNPEIHEQINEDDGIDVILSGHTHGGQIRFGKFGPYELGKTGIVKNAAYLISNGYGTTKVPLRLGAEPETHIVTLCGPE,not soluble
